The values that follow come from the supplement of paper PMC10126150.

± gives the standard deviation of the averaged measurements.

The series has as its system ATP. In words: switch fluorescence ratio, 500 uM ATP over buffer (Cy3 cluster intensity, sum of 5 cycles each) (fold (ratio)); higher = stronger signal-on switching upon ATP binding; sequences stand for … in TCGTCGGCAGCGTCAGATGTGTATAAGAGACAGTTTTTTTTTTTTTTTTTTTTTTTTT…TC. As to conditions: aptamer strand: ATP DNA aptamer (quencher-CACCTGGGGGAGTATTGCGGAGGAAGG + anchor), 100 nM annealed; ATP concentration: 500 uM. The essentials:
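Between each of five buffer/ATP cycles, the flow-cell was stripped with NaOH and re-annealed. Each cycle imaged Cy3-labelled switching-strand clusters, annealed to 100 nM quencher-labelled ATP aptamer on a modified Illumina MiSeq flow-cell, first in selection buffer and then after 15 min with 500 uM ATP at 22 °C. The fluorescence ratio is summed target-cycle over summed buffer-cycle Cy3 intensity per cluster, averaged per switch-domain sequence, with clusters outside 100-1000 RFU excluded.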
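Also: ATP exposure 15 min at 22 °C before imaging.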

In the case of GGGAAGTGTG, the switch fluorescence ratio is 0.979 ± 0.024. To AAATAGTGG belongs 0.9626 ± 0.0063; to TAGTGGGGGC, 1.01 ± 0.044. On to TTTCGCAGAA, for which the switch fluorescence ratio amounted to 1.1 ± 0.1.

As for TCGCTGTAGG, the switch fluorescence ratio was 1.1 ± 0.059. For ACAAGACTTA the value was 1.04 ± 0.018; for TTTTGATCGC, 1.36 ± 0.5; for CTCGGAGGGA, 0.985 ± 0.04. To GCATTTTTTT belongs 0.996 ± 0.032; to TTGAGTTTTG, 0.985 ± 0.031.

In the case of TAAAAGGAAT, the switch fluorescence ratio came to 0.993 ± 0.018. Consider GGCTGATACG, for which the switch fluorescence ratio was determined as 1.04 ± 0.059. TTTTACTCGA: the switch fluorescence ratio was 1.03 ± 0.014. For TTTTGAGGTG, the switch fluorescence ratio is 1.06 ± 0.028.

For TTGAGTGGAG, the switch fluorescence ratio worked out at 1.02 ± 0.029. To CGACAATCAT belongs 1.039 ± 0.0036; to GGTGGGAGAC, 1.01 ± 0.03. For GTGGGATTCG the value was 1.011 ± 0.0059. Regarding TAGGAGGTTC, the switch fluorescence ratio was determined as 0.988 ± 0.021. To CACGGCTTGG belongs 0.9744 ± 0.0044; to GTTAGTACAG, 1.01 ± 0.031.

With GGTTTAATCG, the switch fluorescence ratio was 1.01 ± 0.046. For ATCTAGTACG, the switch fluorescence ratio worked out at 1.02 ± 0.044. For TGGCGGTCGG the value was 1 ± 0.048; for TTGTTACAGA, 1.004 ± 0.0078; for ACAGGGGCGG, 1.008 ± 0.006. To GCAACGTTCC belongs 1.96 ± 1.4. To TTTCTCGTTC belongs 1.15 ± 0.21; to GGTCAAGGGG, 0.9826 ± 0.0088; to AATAACTGGT, 1.04 ± 0.028. TTTACAACGC: the switch fluorescence ratio came to 1.05 ± 0.012. On to GGGTTCCAGG, for which the switch fluorescence ratio was 1.26 ± 0.098. Consider CTAAGTAGCC, for which the switch fluorescence ratio was 1.01 ± 0.015. As for TAGTGCCTGT, the switch fluorescence ratio amounted to 0.995 ± 0.028. To TTAATGTTGG belongs 0.962 ± 0.046; to TATAAGGGAG, 0.996 ± 0.023. To GCATATTGGG belongs 0.9866 ± 0.0042.

As for CGGTTAGACT, the switch fluorescence ratio came out at 0.975 ± 0.05. With TAGTTGTTCT, the switch fluorescence ratio came out at 0.962 ± 0.022. For AGAATAGGGG the value was 0.9762 ± 0.0083; for TGTGTGCGCG, 1.02 ± 0.043; for TTTAAAAAAG, 1.02 ± 0.028.

For the sequence AAGGAAGCGT, the switch fluorescence ratio stood at 0.9883 ± 0.0045. For GCCGTGGCGG the value was 0.9753 ± 0.0041. For TTTCTCGTCG the value was 1 ± 0.014.

On to TGACGGCCAG, for which the switch fluorescence ratio was 1.01 ± 0.013. For the sequence GTTACTGCTG, the switch fluorescence ratio is 1.03 ± 0.043. To TAGTAGGGCA belongs 1.01 ± 0.033; to GCATAGGGAT, 0.988 ± 0.022; to CATGGGATGC, 1.08 ± 0.1.

Take TTTAAGTGTC: the switch fluorescence ratio is 1.09 ± 0.11. For GTTGTAACAT the value was 0.99541 ± 0.00081; for AAATAGGTGA, 1.05 ± 0.025. For GGGACTCGTG, the switch fluorescence ratio turned out to be 1.04 ± 0.053. For TTAAGGTATT, the switch fluorescence ratio is 1.07 ± 0.12. To CTTCATGGTC belongs 0.96 ± 0.017; to GGGGGTACAC, 1.01 ± 0.025; to TTATGTATGC, 0.95 ± 0.08. ACTTACTATC: the switch fluorescence ratio was 1.193 ± 0.0046. Regarding AATGACTAAT, the switch fluorescence ratio is 1.01 ± 0.017. As for CCGGACGTTC, the switch fluorescence ratio was 1.53 ± 0.042. For TGGTCAGGGT the value was 0.9735 ± 0.0097. For TGGGTTTTAA, the switch fluorescence ratio is 0.999 ± 0.025. As for ATGGATCACC, the switch fluorescence ratio turned out to be 1.019 ± 0.0027. For AGCTCCGACA the value was 1.63 ± 0.058; for TGGGGGGTAG, 0.988 ± 0.02. Regarding GCACATGAAC, the switch fluorescence ratio came to 1.1 ± 0.022. Regarding CGTTAAGGGA, the switch fluorescence ratio was 0.978 ± 0.021. For CCTGGATTAG the value was 1.05 ± 0.041; for CTTGTGAGTT, 0.979 ± 0.016. For the sequence TCGGTGAATT, the switch fluorescence ratio was found to be 1.01 ± 0.011.

Take ATATGTAAAC: the switch fluorescence ratio is 1 ± 0.047. For AGATTTTCCT the value was 1.19 ± 0.35; for CTCCGTTTTT, 2.88 ± 0.62.

Turning to GCGGTCATGG, the switch fluorescence ratio came to 0.992 ± 0.046. In the case of AGGGTAGCTA, the switch fluorescence ratio came to 0.958 ± 0.016. Regarding GGATAAAGAC, the switch fluorescence ratio is 1.37 ± 0.41. For GGGATAAGCC the value was 1 ± 0.012.
